Data taken from the Immune Epitope Database (IEDB).

Target: HLA-A*02:01
Assay: IEDB peptide-MHC binding, purified MHC/competitive/radioactivity; filed as Kd, often an IC50 or EC50 that approximates it; ≥ and ≤ were set here for values at or beyond the usual limits of such assays
[1] = source organism: Hepatitis B virus subtype ayw

Sequence	Kd (source organism: Homo sapiens)	Kd [1]	other results
GLRDLAVAV			Kd (source organism: Hepatitis C virus (isolate Taiwan)): 1.47 µM
ALSRKVAELV	≥ 50 µM		
ILCWGELMTL		0.026 µM	
ELHPDKWTV			Kd (source organism: HIV-1 M:B_MN): ≥ 50 µM
NMGLKFRQLL		≥ 50 µM	
DLVVSYVNV			Kd (source organism: Hepatitis B virus): ≥ 50 µM
RLCVQSTHV			Kd (source organism: Human papillomavirus 16): 16.7 µM
DLESEFQAAL	≥ 50 µM		
PLERFAELV	≥ 50 µM		
DLFGIWSKV	≥ 25 µM		
RMRGTFSAPL		0.046 µM	
HLSLRGLPV		12.5 µM	
ELRHYSDSV			Kd (source organism: human papillomavirus 18): ≥ 50 µM
PLTSIISAV	3.33 µM		
HLEGKVILV			Kd (source organism: HIV-1 M:B_MN): 8.33 µM
KLPGLLSRDL	≥ 50 µM		
NMGLKFRQL		≥ 50 µM	
PLSYQHFRRL		≥ 50 µM	
FLCILLLCLI			Kd (source organism: Hepatitis B virus adw/Indonesia/PIDW420): 2.38 µM
LLYQTFGRKL		≥ 50 µM	
SLQLVFGIEL	0.102 µM		
CLTFGRETV		≥ 50 µM	
